The supplement of paper PMC7877785
± gives the uncertainty stated by the source.

Experiment: self-splicing fitness, log relative to wild type (ln ratio); higher = more splicing; Tetrahymena group I intron in knt gene, E. coli kanamycin selection, DiMSum; sequences stand for … in CUCUCU…GGAGGGAAAAGUUAUCAGGCAUGCACCUGGUAGCUAGUCUUUAAACCAAUAGAUUGCAUCGGUUUAAAAGGCAAGACCGUCAAAUUGCGGGAAAGGGGUCAACAGCCGUUCAGUACCAAGUCUCAGGGGAAACUUUGAGAUGGCCUUGCAAAGGGUAUGGUAAUAAGCUGACGGACAUGGUCCUAACCACGCAGCCAAGUCCUAAGUCAACAGAUCUUCUGUUGAUAUGGAUGCAGUUCACAGACUAAAUGUCGGUCGGGGAAGAUGUAUUCUUCUCAUAAGAUAUAGUCGGACCUCUCCUUAAUGGGAGCUAGCGGAUGAAGUGAUGCAACACUGGAGCCGCUGGGAACUAAUUUGUAUGCGAAAGUAUAUUGAUUAGUUUUGGAGUACUCGUGGUCG
Outline: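 Six replicate transformations of E. coli BL21(DE3) with a pET-22b(+) library were grown overnight at 37°C or 30°C. The library randomised all eight P1ex-region intron nucleotides, the intron lying in the knt kanamycin-resistance gene, and plates were LB agar with or without 25 μg/mL kanamycin plus 100 μg/mL carbenicillin, 50 μM IPTG and 0.2% rhamnose. Pooled colonies were amplicon-sequenced on an Illumina HiSeq 2500, and fitness is the DiMSum error-weighted combination of wild-type-normalised replicate fold changes, kanamycin versus none.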

Sequence	self-splicing fitness (ln) (30 °C)	self-splicing fitness (ln) (37 °C)
UAUCAGCAAUAUUACGCAUU	-1.42 ± 0.076	-0.197 ± 0.09
UAUCAGCAAUAUUACGCCUG	-0.368 ± 0.1	-0.425 ± 0.1
UAUCAGCAAUAUUACGCGGC	-2.77 ± 0.31	-1.62 ± 0.24
UAUCAGCAAUAUUACGCUAA	-0.647 ± 0.084	0.529 ± 0.099
UAUCAGCAAUAUUACGGAUC	-0.475 ± 0.11	-0.265 ± 0.13
UAUCAGCAAUAUUACGGCCG	-0.163 ± 0.11	0.391 ± 0.16
UAUCAGCAAUAUUACGGCUA	0.13 ± 0.085	0.848 ± 0.12
UAUCAGCAAUAUUACGGGAA	-1.65 ± 0.1	-0.124 ± 0.11
UAUCAGCAAUAUUACGGGGU	-3.6 ± 0.2	-2.48 ± 0.17
UAUCAGCAAUAUUACGGUAA	-0.552 ± 0.13	-0.308 ± 0.11
UAUCAGCAAUAUUACGGUCG	-0.0229 ± 0.059	0.259 ± 0.066
UAUCAGCAAUAUUACGUACU	-1.57 ± 0.089	-0.383 ± 0.1
UAUCAGCAAUAUUACGUCAU	-1.88 ± 0.13	-1.42 ± 0.15
UAUCAGCAAUAUUACGUCUG	-0.947 ± 0.076	-0.205 ± 0.1
UAUCAGCAAUAUUACGUGCA	-0.589 ± 0.054	0.447 ± 0.078
UAUCAGCAAUAUUACGUGUC	-4.01 ± 0.17	-1.79 ± 0.12
UAUCAGCAAUAUUACGUUUU	-2.74 ± 0.084	-1.4 ± 0.085
UAUGAGCAAUAUUACGACAG		-1.78 ± 0.36
UAUGAGCAAUAUUACGACUG	-1.23 ± 0.12	-0.328 ± 0.14
UAUGAGCAAUAUUACGAUAA	-3.74 ± 0.33	-2.74 ± 0.27
UAUGAGCAAUAUUACGCAUU	-3.57 ± 0.25	-2.15 ± 0.22
UAUGAGCAAUAUUACGCCAA		-2.51 ± 0.37
UAUGAGCAAUAUUACGCCGA	-2.04 ± 0.34	-1.73 ± 0.26
UAUGAGCAAUAUUACGCCGC	-1.9 ± 0.31	-1.02 ± 0.42
UAUGAGCAAUAUUACGCGCU	-3.68 ± 0.31	-2.64 ± 0.28

Sequence	self-splicing fitness (ln) (30 °C)	self-splicing fitness (ln) (37 °C)
UAUGAGCAAUAUUACGGACG	-2.79 ± 0.25	-1.19 ± 0.23
UAUGAGCAAUAUUACGGCGC	-3.47 ± 0.48	-1.46 ± 0.29
UAUGAGCAAUAUUACGGCUG	-1.01 ± 0.15	-0.14 ± 0.19
UAUGAGCAAUAUUACGGGCG	-2.75 ± 0.16	-2.12 ± 0.2
UAUGAGCAAUAUUACGGGCU		-1.8 ± 0.47
UAUGAGCAAUAUUACGGGGU	-2.98 ± 0.21	-2.2 ± 0.22
UAUGAGCAAUAUUACGUCCA	-2.26 ± 0.26	-2.86 ± 0.4
UAUGAGCAAUAUUACGUGGG	-3.55 ± 0.25	-3.94 ± 0.39
UAUGAGCAAUAUUACGUGUC	-3.77 ± 0.28	-3.2 ± 0.4
UAUGAGCAAUAUUACGUUCA	-1.29 ± 0.2	-0.652 ± 0.22
UAUGAGCAAUAUUACGUUUU	-4.02 ± 0.32	-2.45 ± 0.23
UAUUAGCAAUAUUACGAAUG	-0.433 ± 0.082	-0.322 ± 0.11
UAUUAGCAAUAUUACGCAGA	-1.96 ± 0.28	-1.63 ± 0.23
UAUUAGCAAUAUUACGCCAG	-1.17 ± 0.28	
UAUUAGCAAUAUUACGCGGU	-3.62 ± 0.36	-1.8 ± 0.37
UAUUAGCAAUAUUACGCUAA		-1.1 ± 0.46
UAUUAGCAAUAUUACGGACC	-1.51 ± 0.43	
UAUUAGCAAUAUUACGGAGG	-2.95 ± 0.28	-1.84 ± 0.34
UAUUAGCAAUAUUACGGCAA	-1.06 ± 0.14	-0.784 ± 0.15
UAUUAGCAAUAUUACGGCAU	-1.99 ± 0.16	-0.541 ± 0.12
UAUUAGCAAUAUUACGGCCU	-0.879 ± 0.21	-0.611 ± 0.27
UAUUAGCAAUAUUACGGCGC	-1.74 ± 0.13	-0.453 ± 0.17
UAUUAGCAAUAUUACGGCUC	-0.997 ± 0.4	0.595 ± 0.44
UAUUAGCAAUAUUACGGCUU	-1.35 ± 0.13	-0.478 ± 0.17
UAUUAGCAAUAUUACGGGAA	-0.606 ± 0.27	-1.45 ± 0.31

Sequence	self-splicing fitness (ln) (30 °C)	self-splicing fitness (ln) (37 °C)
UAUUAGCAAUAUUACGGGGU		-1.52 ± 0.38
UAUUAGCAAUAUUACGUAAA	-2.63 ± 0.25	-1.09 ± 0.38
UAUUAGCAAUAUUACGUCCU	-1.69 ± 0.2	-0.635 ± 0.21
UAUUAGCAAUAUUACGUUGC	-3.57 ± 0.31	-2.59 ± 0.25
UAUUAGCAAUAUUACGUUGU	-3.93 ± 0.34	-3.04 ± 0.4
UCAAAGCAAUAUUACGAGAA	-3.28 ± 0.34	-1.48 ± 0.25
UCAAAGCAAUAUUACGAGCG	-0.712 ± 0.088	-0.172 ± 0.11
UCAAAGCAAUAUUACGAGUC	-3.79 ± 0.21	-2.26 ± 0.22
UCAAAGCAAUAUUACGCAAC	-4.31 ± 0.42	
UCAAAGCAAUAUUACGCGAU		-1.64 ± 0.23
UCAAAGCAAUAUUACGCGCA	-0.442 ± 0.066	-0.207 ± 0.077
UCAAAGCAAUAUUACGCGCG	-0.683 ± 0.082	0.256 ± 0.097
UCAAAGCAAUAUUACGCGGG	-3.64 ± 0.19	-2.14 ± 0.16
UCAAAGCAAUAUUACGCUAG	-1.25 ± 0.076	-1.29 ± 0.1
UCAAAGCAAUAUUACGGAGU	-3.11 ± 0.13	-1.69 ± 0.14
UCAAAGCAAUAUUACGGCAU	-2.94 ± 0.14	-2.75 ± 0.14
UCAAAGCAAUAUUACGGCCU		-1.28 ± 0.17
UCAAAGCAAUAUUACGGCGA	-0.708 ± 0.074	-0.462 ± 0.068
UCAAAGCAAUAUUACGGGGU	-3.42 ± 0.17	-3.33 ± 0.26
UCAAAGCAAUAUUACGGGUA	-0.981 ± 0.096	0.505 ± 0.093
UCAAAGCAAUAUUACGUAAU	-4.1 ± 0.21	-3.66 ± 0.21
UCAAAGCAAUAUUACGUGGC	-3.62 ± 0.32	-2.45 ± 0.32
UCAAAGCAAUAUUACGUGUA	-1.78 ± 0.07	-0.388 ± 0.066
UCAAAGCAAUAUUACGUUUA	-2.71 ± 0.16	-2.51 ± 0.18
UCACAGCAAUAUUACGAAAC	-3.36 ± 0.37	-2.7 ± 0.25

Sequence	self-splicing fitness (ln) (30 °C)	self-splicing fitness (ln) (37 °C)
UCACAGCAAUAUUACGAAGG	-1.55 ± 0.097	-0.755 ± 0.12
UCACAGCAAUAUUACGACUC	-3.43 ± 0.12	-1.44 ± 0.13
UCACAGCAAUAUUACGAGGA	-1.73 ± 0.13	-1.65 ± 0.13
UCACAGCAAUAUUACGAGUG	-2.04 ± 0.09	-0.607 ± 0.09
UCACAGCAAUAUUACGAUCU	-2.71 ± 0.1	-1.78 ± 0.11
UCACAGCAAUAUUACGCAAG	-2.65 ± 0.17	-1.11 ± 0.15
UCACAGCAAUAUUACGCACA	-0.445 ± 0.088	-0.743 ± 0.12
UCACAGCAAUAUUACGCAGG	-3.13 ± 0.13	-1.52 ± 0.11
UCACAGCAAUAUUACGCAGU	-4.13 ± 0.21	-2.17 ± 0.16
UCACAGCAAUAUUACGCAUA	-2.02 ± 0.097	-1.68 ± 0.093
UCACAGCAAUAUUACGCAUG	-2.04 ± 0.098	-1.58 ± 0.098
UCACAGCAAUAUUACGCUUC	-4.3 ± 0.43	-3.28 ± 0.43
UCACAGCAAUAUUACGGACG	-1.22 ± 0.073	-0.222 ± 0.091
UCACAGCAAUAUUACGGACU	-2.99 ± 0.15	-2.16 ± 0.14
UCACAGCAAUAUUACGGAGG	-3.27 ± 0.15	-2.29 ± 0.19
UCACAGCAAUAUUACGGCCU	-3.61 ± 0.25	-1.99 ± 0.15
UCACAGCAAUAUUACGGGCC	-3.95 ± 0.34	-2.76 ± 0.33
UCACAGCAAUAUUACGGGCU	-4 ± 0.18	-3.47 ± 0.16
UCACAGCAAUAUUACGGUAG	-1.18 ± 0.085	-0.311 ± 0.1
UCACAGCAAUAUUACGUACA	-1.53 ± 0.076	-0.549 ± 0.075
UCACAGCAAUAUUACGUCAG	-1.59 ± 0.077	-0.829 ± 0.1
UCACAGCAAUAUUACGUUAA	-2.66 ± 0.12	-1.83 ± 0.11
UCACAGCAAUAUUACGUUUG	-2.21 ± 0.08	-1.2 ± 0.11
